Series [1] deals with bovine serum albumin (BSA) (UniProt P02769 P02769:25-607). As to the kind of experiment: ELONA; BSA control beads, not different from No DNA. The method, then:
Protein-modified magnetic beads were prepared by functionalising 1 mg of epoxy beads with either 10 μg of hCG or negative control proteins BSA or HSA (as in Example 2). Once functionalised, aliquots of the beads corresponding to 72 μg beads were added to individual wells of a 96-well plate which were pre-blocked with 3% w/v milk powder (in HMCKN-T buffer composed of 20 mM HEPES, 2 mM MgCl₂, 2 mM CaCl₂, 2 mM KCl, 150 mM NaCl, pH 7.4, supplemented with 0.002% v/v TWEEN 20.) Bead samples were prepared in triplicate.
A variation of the qPCR assay (FIG. 9) was employed using biotinylated aptamer sequences, creating a colourimetric ELONA (FIG. 10). During the colourimetric ELONA study, 5′ biotinylated full-length aptamer sequences were exposed to protein-modified beads—either hCG target or Bovine Serum Albumin (the bovine equivalent of HSA). After rinsing unbound aptamers from the beads, the colorimetric signal, proportional to the amount of biotinylated aptamer present, was generated by the addition of HRP-conjugated streptavidin and the subsequent HRP-catalysed oxidation of TMB.

Series [2] has as its target human chorionic gonadotropin (hCG), alpha/beta heterodimer (Homo sapiens, UniProt P01215;P0DN86 P01215:25-116,P0DN86:21-165). The series can be described thus: EMSA; very slight band decrease; ELONA signal similar to No DNA. Particulars: tags: Abcam ab126652, isolated from human urine, >=50% pure; label: 5' biotin.

Chain of bovine serum albumin (BSA) (P02769 25-607, one chain of several): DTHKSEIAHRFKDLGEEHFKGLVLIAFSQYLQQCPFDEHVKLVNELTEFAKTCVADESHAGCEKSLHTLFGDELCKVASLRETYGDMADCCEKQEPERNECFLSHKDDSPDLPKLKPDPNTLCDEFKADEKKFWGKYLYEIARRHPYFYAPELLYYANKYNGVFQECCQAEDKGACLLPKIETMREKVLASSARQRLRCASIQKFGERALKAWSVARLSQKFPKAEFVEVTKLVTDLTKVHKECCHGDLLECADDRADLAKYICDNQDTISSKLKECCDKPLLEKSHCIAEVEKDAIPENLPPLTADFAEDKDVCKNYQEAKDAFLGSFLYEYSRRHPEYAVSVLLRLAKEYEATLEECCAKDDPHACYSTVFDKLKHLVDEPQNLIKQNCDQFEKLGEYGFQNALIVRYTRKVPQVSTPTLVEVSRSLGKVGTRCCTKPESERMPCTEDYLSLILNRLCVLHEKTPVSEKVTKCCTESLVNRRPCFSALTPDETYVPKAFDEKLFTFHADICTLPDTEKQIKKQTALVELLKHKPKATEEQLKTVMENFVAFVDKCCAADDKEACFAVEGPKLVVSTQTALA
Chain of human chorionic gonadotropin (hCG), alpha/beta heterodimer (P01215 25-116, chain 1 of 2, other chains not shown): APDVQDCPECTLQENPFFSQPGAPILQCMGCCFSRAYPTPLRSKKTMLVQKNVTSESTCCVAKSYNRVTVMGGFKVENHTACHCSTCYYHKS

Turning to CAAGGATCGGCTCAACTTAATATTGGAGGGATAGTGTTGG (ssDNA) [R5_4 truncated], the binding result in series [1] (label: 5' biotin) is “no binding”. For the molecule CAACTATTTCAGTATTCTAGAAAGGTCAAACCTTAGGAGC (ssDNA) [R6_5 truncated], the binding result in series [1] (label: 5' biotin) is recorded as “no binding”. Regarding ACCTGCTGACATTGGGTGGGTCCTGAACCATTTTTAATCA (ssDNA) [R4_64 truncated], the binding result in series [1] (label: 5' biotin (3' biotin variant also used)) is recorded as “no binding”.

Take TGGACGAGGTATCTCGTATCATTGGCACCTAAAACTCCGT (ssDNA) [R4_1 truncated (amplification artefact control)]: the binding result in series [1] (label: 5' biotin) and in series [2] was “no binding” in each case.
